Results from patent publication US20210095036A1 (University of Pennsylvania, published 2021).

Key:
[1] = molecular target: T1, GFRα4 isoform a (GFRα4a), Fc fusion with 6 His (human); assay: phage ELISA, immobilized GFRα4a; first token of the cell (GFRα4b: NT)
T1 construct: the entry holds the whole fusion; also called GFR4α4a; immobilized GFRα4 isoform a
T1 chain: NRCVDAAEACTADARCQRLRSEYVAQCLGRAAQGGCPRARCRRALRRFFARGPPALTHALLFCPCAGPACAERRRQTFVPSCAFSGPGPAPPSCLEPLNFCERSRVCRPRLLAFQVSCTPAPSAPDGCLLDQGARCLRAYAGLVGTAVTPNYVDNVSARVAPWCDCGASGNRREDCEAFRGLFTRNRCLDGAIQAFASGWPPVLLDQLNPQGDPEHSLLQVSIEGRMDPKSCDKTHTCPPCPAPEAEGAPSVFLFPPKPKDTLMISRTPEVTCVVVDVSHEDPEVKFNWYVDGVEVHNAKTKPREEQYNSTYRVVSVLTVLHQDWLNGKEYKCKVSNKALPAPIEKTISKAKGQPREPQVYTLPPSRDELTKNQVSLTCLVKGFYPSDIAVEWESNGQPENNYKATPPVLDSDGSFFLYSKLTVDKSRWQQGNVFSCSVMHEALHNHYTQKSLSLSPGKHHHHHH
Excerpt: (§1) To perform these ELISAs, the GFRα4a isoform comprising a portion of GFRα4a (Asn24 -Ser245, UniProt accession #Q9GZZ7-2) was used, followed by a Factor Xa cleavage site/linker, a portion of optimized IgG1 Fc domain (Pro100-Lys330), and 6 His residues for purification. The GFRα4b isoform comprised a portion of GFRα4b (Asn24-Va1274, UniProt #Q9GZZ7-1), followed by a TEV cleavage site linker, and a portion of human IgG1 Fc domain (Asp104-Lys330).

[2] = molecular target: T1, GFRα4 isoform a (GFRα4a), Fc fusion …; assay: phage ELISA, immobilized GFRα4a; first token of the cell (W weak binding)
Excerpt: as §1

[3] = molecular target: T2, GFRα4 isoform b (GFRα4b), Fc fusion (human); assay: phage ELISA, immobilized GFRα4b; second token of the cell
T2 construct: the entry holds the whole fusion; also called GFR4α4b; GFRα4-Fc
Excerpt: as §1

[4] = molecular target: T1, GFRα4 isoform a (GFRα4a), Fc fusion …; assay: phage ELISA, immobilized GFRα4a (FIG. 6)
Excerpt: as §1
(§2) Binding of the positive scFvs from this experiment were also screened for binding to GFRα4b (FIG. 7). […] As observed in previous ELISAs of this type with the original rabbit P4-10 expressed as an antibody fragment on phage, reactivity always appears greater against the GFRα4b isoform.

[5] = molecular target: T2, GFRα4 isoform b (GFRα4b), Fc fusion; assay: phage ELISA, immobilized GFRα4b against GFRα4a
Excerpt: as §1, §2

[6] = molecular target: T2, GFRα4 isoform b (GFRα4b), Fc fusion; assay: flow cytometry of CAR T cells stained with Fc-fusion antigen and anti-human Fc-specific antibodies (FIG. 19C)
Method: (§3) To create CAR-T expressing cells, human T cells from healthy donors were activated with anti-CD3 and anti-CD28 coated paramagnetic beads (DYNABEADS® Human T-Activator CD3/CD28, Life Technologies). One day following activation, cells were transduced with lentiviral vectors encoding GFRα4-directed CARs (original rabbit P4-10 and humanized versions), a CD19-directed control CAR (FMC63(cd8)bbz), or were left non-transduced (NTD). Cells were expanded and on day 7, cells were evaluated for cell-surface expression of the CARs by flow cytometry (FACSCalibur, BD Biosciences, Franklin Lakes, N.J.). Fluorescently-labeled goat anti-rabbit antibodies detected CAR P4-10, the original rabbit GFRα4-directed CAR, and fluorescently-labeled Protein L detected the murine CD19-directed CAR (FIG. 19A, “P410” and “19bbz”, respectively). Fluorescently-labeled rabbit anti-human antibodies (“RaH”) detected CARs 10, 14, 25, and 29 (FIG. 19B). Expression of cell-surface CARs were also detected by staining with antigen using recombinant human Fc-fusions of GFRα4 or CD19 antigen followed by detection of bound antigen with fluorescently-labeled anti-human Fc-specific antibodies (FIG. 19C). Appropriately, CD19-Fc only bound to CD19-directed CARs while GFRα4-Fc bound to both rabbit P4-10 and humanized P4-10 CARs but not the CD19-directed CAR.

CD19-Fc = molecular target: T3, CD19-Fc (UniProt P15391 20-291); assay: flow cytometry of CAR T cells stained with Fc-fusion antigen and anti-human Fc-specific antibodies
T3 construct: The words recombinant human Fc-fusions leave open whether human means the Fc or the antigen; also called recombinant human Fc-fusion of CD19 antigen; Fc-conjugated soluble CD19; not shown: human Fc
T3 sequence (looked up): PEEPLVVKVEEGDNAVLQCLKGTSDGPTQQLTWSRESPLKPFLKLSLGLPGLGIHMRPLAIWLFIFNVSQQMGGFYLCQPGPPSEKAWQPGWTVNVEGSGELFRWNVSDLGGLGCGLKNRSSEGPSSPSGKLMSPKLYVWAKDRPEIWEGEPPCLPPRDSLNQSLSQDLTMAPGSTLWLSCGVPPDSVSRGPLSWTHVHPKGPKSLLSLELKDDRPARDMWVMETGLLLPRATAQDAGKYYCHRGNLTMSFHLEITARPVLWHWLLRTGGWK
Method: as §3

[7] = molecular target: T4, human GFRα4 isoform a (GFRα4a) on transduced cells (human, UniProt Q9GZZ7-2 21-248); assay: flow cytometry and sorting of Nalm6 cells transduced with human GFRα4a-T2A-GFP
T4 construct: whole, on cells; also called Nalm6 cells expressing the GFRα4 isoform a
T4 sequence (looked up): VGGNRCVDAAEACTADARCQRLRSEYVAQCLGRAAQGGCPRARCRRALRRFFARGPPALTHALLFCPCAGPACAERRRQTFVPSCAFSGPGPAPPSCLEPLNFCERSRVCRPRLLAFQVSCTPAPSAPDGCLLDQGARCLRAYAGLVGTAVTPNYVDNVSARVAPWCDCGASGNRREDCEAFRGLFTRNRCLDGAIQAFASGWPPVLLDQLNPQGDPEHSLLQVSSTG
Method: Cytotoxicity of target cells by GFRα4-directed CAR-T cells was evaluated using a 51Cr release-assay. Target cells comprised either Nalm6 cells (a CD19-expressing B-cell precursor leukemia cell line (ATCC® CRL-3273TM)), Nalm6 cells expressing the GFRα4 isoform a (GFRα4a) or isoform b (GFRα4b), or TT cells (a human medullary thyroid cancer cell line (ATCC® CRL-1803TM)). Nalm6 cells expressing GFRα4 proteins were produced by transduction with lentiviral vectors encoding human GFRα4a-T2A-GFP or human GFRα4b-T2A-GFP (Milone et al. (2009) Molecular Therapy., 17: 1453-1464). […] P4-10 antibody comprised a full-length rabbit IgG containing the P4-10 rabbit variable regions and was a gift of Novartis Pharmaceuticals.

B1: 11.H2m1.L1 (scFv)
scFv: QLVLTQSPSASASLGASVKLTCTLSSAHKTYTIAWHQQQPEKGPRYLMKVKSDGSYSKGDGIPDRFSGSSSGAERYLTISSLQSEDEADYYCGADDNGGYVFGGGTKLTVLGGGSSRSSSSGGGGSGGGGEQSVKESGGGLVQPGGSLRLSCAASGFTLSRHALTWVRQAPGKGLEWIGAIDNAGTTYYASWAKSRFTISRNTDLHTVYLQMNSLRAEDTAVYFCARVFYDINSGYYLDGMDLWGPGTLVTVSS
notes: pIII not in the entry; order Vλ-linker-VH; The printed entry has an E before QSVKE of the VH; also called scFv 11
B1: no binding [1].

B2: 23.H1.L2m1 (scFv)
scFv: QFVLTQPPSASGTPGQRVTISCTLSSAHKTYTIDWYQQLPGTAPKLLIYVKSDGSYTKGTGVPDRFSGSSSGADRYLAISGLQSEDEADYYCGADDNGGYVFGGGTQLTVTGGGSSRSSSSGGGGSGGGGQVQLQESGPGLVKPSETLSLTCAVSGYSISRHALTWIRQPPGKGLEWIGAIDNAGTTYYASWAKSRVTISVDTSKNQFSLKLSSVTAADTAVYYCARVFYDINSGYYLDGMDLWGPGTLVTVSS
notes: pIII not in the entry; order Vλ-linker-VH; also called scFv 23
B2: binds [2]; binds [3].

B3: 1.H1.L3 (scFv)
scFv: QSALTQPASVSGSPGQSITISCTGTSAHKTYTVSWYQQHPGKAPKLMIYVKSDGSYNRPSGVSNRFSGSKSGNTASLTISGLQAEDEADYYCGADDNGGYVFGGGTKLTVLGGGSSRSSSSGGGGSGGGGQVQLQESGPGLVKPSETLSLTCAVSGYSISRHALTWIRQPPGKGLEWIGAIDNAGTTYYASWAKSRVTISVDTSKNQFSLKLSSVTAADTAVYYCARVFYDINSGYYLDGMDLWGPGTLVTVSS
notes: pIII not in the entry; order Vλ-linker-VH; also called scFv 1
B3: no binding [1].

B4: 9.H2.L1 (scFv)
scFv: QLVLTQSPSASASLGASVKLTCTLSSAHKTYTIAWHQQQPEKGPRYLMKVKSDGSYSKGDGIPDRFSGSSSGAERYLTISSLQSEDEADYYCGADDNGGYVFGGGTKLTVLGGGSSRSSSSGGGGSGGGGEVQLVESGGGLVQPGGSLRLSCAASGFTFSRHALTWVRQAPGKGLEWVSAIDNAGTTYYASWAKSRFTISRDNAKNSLYLQMNSLRAEDTAVYYCARVFYDINSGYYLDGMDLWGPGTLVTVSS
notes: pIII not in the entry; order Vλ-linker-VH; also called scFv 9
B4: no binding [1].

B5: 0.410HC.410LC (scFv)
scFv: QFVLTQSPSVSAALGASAKLTCTLSSAHKTYTIDWYQQQQGEAPRYLMQVKSDGSYTKGTGVPDRFSGSSSGADRYLIIPSVQADDEAGYVCGADDNGGYVFGGGTQLTVTGGGSSRSSSSGGGGSGGGGQSVKESEGGLFKPTDTLTLTCTVSGFSLSRHALTWVRQAPGNGLEWIGAIDNAGTTYYASWAKSRSTITRNTDLHTVTLKMTSLTASDTATYFCARVFYDINSGYYLDGMDLWGPGTLVTVSS
notes: pIII not in the entry; order Vλ-linker-VH; positive control; also called original rabbit P4-10 scFv; scFv 0
B5: binds [4]; binds [5].

B6: CAR P4-10, the original rabbit GFRα4-directed CAR (other)
VH: QSVKESEGGLFKPTDTLTLTCTVSGFSLSRHALTWVRQAPGNGLEWIGAIDNAGTTYYASWAKSRSTITRNTDLHTVTLKMTSLTASDTATYFCARVFYDINSGYYLDGMDLWGPGTLVTVSS
VL: QFVLTQSPSVSAALGASAKLTCTLSSAHKTYTIDWYQQQQGEAPRYLMQVKSDGSYTKGTGVPDRFSGSSSGADRYLIIPSVQADDEAGYVCGADDNGGYVFGGGTQLTVT
notes: Chimeric antigen receptor on transduced human T cells, one chain in fact; also called P410bbz; P4-10 CAR
B6: binds [6]; no binding (CD19-Fc).

B7: P4-10 antibody (full-length rabbit IgG containing the P4-10 rabbit variable regions) (antibody, V domains shown)
VH: B6 VH
VL: B6 VL
notes: Full-length rabbit IgG, lambda light chain; also called anti-GFRα4 P4-10 antibody; rabbit P4-10
B7: binds [7].

B8: 15.H1m1.L1 (scFv)
scFv: QLVLTQSPSASASLGASVKLTCTLSSAHKTYTIAWHQQQPEKGPRYLMKVKSDGSYSKGDGIPDRFSGSSSGAERYLTISSLQSEDEADYYCGADDNGGYVFGGGTKLTVLGGGSSRSSSSGGGGSGGGGQQSVKESGPGLVKPSETLSLTCAVSGFSLSRHALTWVRQPPGKGLEWIGAIDNAGTTYYASWAKSRVTISRNTDLHTVSLKLSSVTAADTAVYFCARVFYDINSGYYLDGMDLWGPGTLVTVSS
notes: pIII not in the entry; order Vλ-linker-VH; also called scFv 15
B8: no binding [1].

B9: 5.H2.L2 (scFv)
scFv: QSVLTQPPSASGTPGQRVTISCSGSSAHKTYTVNWYQQLPGTAPKLLIYVKSDGSYQRPSGVPDRFSGSKSGTSASLAISGLQSEDEADYYCGADDNGGYVFGGGTKLTVLGGGSSRSSSSGGGGSGGGGEVQLVESGGGLVQPGGSLRLSCAASGFTFSRHALTWVRQAPGKGLEWVSAIDNAGTTYYASWAKSRFTISRDNAKNSLYLQMNSLRAEDTAVYYCARVFYDINSGYYLDGMDLWGPGTLVTVSS
notes: pIII not in the entry; order Vλ-linker-VH; also called scFv 5
B9: no binding [1].

B10: 7.H2m1.L2 (scFv)
scFv: QSVLTQPPSASGTPGQRVTISCSGSSAHKTYTVNWYQQLPGTAPKLLIYVKSDGSYQRPSGVPDRFSGSKSGTSASLAISGLQSEDEADYYCGADDNGGYVFGGGTKLTVLGGGSSRSSSSGGGGSGGGGEQSVKESGGGLVQPGGSLRLSCAASGFTLSRHALTWVRQAPGKGLEWIGAIDNAGTTYYASWAKSRFTISRNTDLHTVYLQMNSLRAEDTAVYFCARVFYDINSGYYLDGMDLWGPGTLVTVSS
notes: pIII not in the entry; order Vλ-linker-VH; The printed entry has an E before QSVKE of the VH; also called scFv 7
B10: no binding [1].

B11: 3.H1m1.L3 (scFv)
scFv: QSALTQPASVSGSPGQSITISCTGTSAHKTYTVSWYQQHPGKAPKLMIYVKSDGSYNRPSGVSNRFSGSKSGNTASLTISGLQAEDEADYYCGADDNGGYVFGGGTKLTVLGGGSSRSSSSGGGGSGGGGQQSVKESGPGLVKPSETLSLTCAVSGFSLSRHALTWVRQPPGKGLEWIGAIDNAGTTYYASWAKSRVTISRNTDLHTVSLKLSSVTAADTAVYFCARVFYDINSGYYLDGMDLWGPGTLVTVSS
notes: pIII not in the entry; order Vλ-linker-VH; also called scFv 3; H1m.L3
B11: no binding [1].
